One molecule from article PMC11983104 (Nucleic Acids Research, 2025) can be followed below.

The target of this assay is GST-NLE1-Ubl WT (human, UniProt Q9NVX2 11-104). Description: ITC.
GST-NLE1-Ubl WT, sequence (Q9NVX2 11-104): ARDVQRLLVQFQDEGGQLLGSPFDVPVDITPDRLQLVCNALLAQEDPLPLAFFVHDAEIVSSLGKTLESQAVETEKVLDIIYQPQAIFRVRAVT

B1: MDN1-MIDAS-(His)6 (domain or fragment)
chain: ELERQLEMWQPRESGNPEEEKVAAEMWQSYLILTAPLSQRLCEELRLILEGSGKPSKRQYQICLAIDDSSSMVDNHTKQLAFESLAVIGNALTLLEVGQIAVCSFGESVKLLHPFHEQFSDYSGSQILRLCKFQQKKTKIAQFLESVANMFAAAQQLSQNISSETAQLLLVVSDGRGLFLEGKERVLAAVQAARNANIFVIFVVLDNPSSRDSILDIKVPIFKGPGEMPEIRSYMEEFPFPYYIILRDVNALPETLSDALRQWFELVTASDHP
As usually defined, the Kd is the free concentration of one partner at which half of the binding sites on the other are occupied at equilibrium, for simple one-to-one binding. B1 showed a Kd of 5.5 nM. This lies in the single-digit nanomolar range.
